Reference: patent US20210253697A1 (Novo Nordisk, published 2021)

Biological target: T1, cynomolgus TREM-1 (cTREM-1 protein, SPR analyte of Examples 9 and 11) (cynomolgus monkey)
T1 construct: Soluble analyte; also called cyno TREM1
T1 chain: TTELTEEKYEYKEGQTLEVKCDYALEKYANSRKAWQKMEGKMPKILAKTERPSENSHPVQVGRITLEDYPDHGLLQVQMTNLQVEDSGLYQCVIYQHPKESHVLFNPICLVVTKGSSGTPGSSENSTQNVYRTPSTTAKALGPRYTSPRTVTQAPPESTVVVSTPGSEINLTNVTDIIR
Test: SPR, mAb captured, cTREM-1 analyte
Procedure: Binding studies were performed on a ProteOn Analyzer (BioRad) that measures molecular interactions in real time through surface plasmon resonance. Experiments were run at 25° C. and the samples were stored at 15° C. in the sample compartment. The signal (RU, response units) reported by the ProteOn is directly correlated to the mass on the individual sensor chip surfaces in six parallel flow cells. Anti-human Fc monoclonal or anti-murine Fc polyclonal antibody from Biacore human or mouse Fc capture kits were immobilized in horizontal direction onto flow cells of a GLM sensor chip according to the manufacturer's instructions. The final immobilization level of capture antibody was approximately 2600-6000 RU in different experiments. […] The GLM surface was regenerated after each injection cycle of analyte via two 18 s injections of 10 mM Glycine, pH 1.7 and 50 mM NaOH at 100 μl/min. This regeneration step removed the anti-TREM-1 antibody and any bound TREM-1 protein from the immobilized capture antibody surface, and allowed for the subsequent binding of the next interaction sample pair.

B1: mAb 0121 (antibody, V domains shown)
VH: EVQLVESGGGLVQPGGSLKLSCAASGFTFSTYAMHWVRQASGKGLEWVGRIRTKSSNYATYYAASVKGRFTISRDDSKNTAYLQMNSLKTEDTAVYYCVRDMGQRRQFAYWGQGTLVTVSS
VL: DIVMTQSPDSLAVSLGERATINCRASESVDTFDYSFLHWYQQKPGQPPKLLIYRASNLESGVPDRFSGSGSGTDFTLTISSLQAEDVAVYYCQQSNEDPYTFGQGTKLEIK
notes: recombinant; also called 14F113/14F69 hz variant HC T93V; 14F113 hz variant HC T93V
Kd: 0.94 nM
